By Kd is commonly meant the equilibrium constant for the complex coming apart.

From PMC5591645 come the findings set out here.

The test addresses phosphorylated human eIF2α (amino acids 1–185) solubility-enhanced mutant (P-eIF2α) (human) (UniProt P05198). The test can be described thus: MST.

As to “PP1^D95A (human PP1α amino acids 7–330, D95A) (from UniProt P62136 7-330) (enzyme)”, the dissociation constant (Kd) was 650 nM.
For “R15A–PP1^D95A (from UniProt O75807;P62136) (complex)”, the fold higher affinity than the isolated PP1^D95A was 5.4 fold.
Take “R15B–PP1^D95A (from UniProt Q5SWA1;P62136) (complex)”: the fold higher affinity than the isolated PP1^D95A amounted to 3 fold.
